Here are results for eleven molecules from patent US20230212305A1 (published 2023).

Substitutions are numbered along the chain they refer to.

The target in test [1] is T1, human ABCG2 (UniProt Q9UNQ0 1-655).
T1 chain: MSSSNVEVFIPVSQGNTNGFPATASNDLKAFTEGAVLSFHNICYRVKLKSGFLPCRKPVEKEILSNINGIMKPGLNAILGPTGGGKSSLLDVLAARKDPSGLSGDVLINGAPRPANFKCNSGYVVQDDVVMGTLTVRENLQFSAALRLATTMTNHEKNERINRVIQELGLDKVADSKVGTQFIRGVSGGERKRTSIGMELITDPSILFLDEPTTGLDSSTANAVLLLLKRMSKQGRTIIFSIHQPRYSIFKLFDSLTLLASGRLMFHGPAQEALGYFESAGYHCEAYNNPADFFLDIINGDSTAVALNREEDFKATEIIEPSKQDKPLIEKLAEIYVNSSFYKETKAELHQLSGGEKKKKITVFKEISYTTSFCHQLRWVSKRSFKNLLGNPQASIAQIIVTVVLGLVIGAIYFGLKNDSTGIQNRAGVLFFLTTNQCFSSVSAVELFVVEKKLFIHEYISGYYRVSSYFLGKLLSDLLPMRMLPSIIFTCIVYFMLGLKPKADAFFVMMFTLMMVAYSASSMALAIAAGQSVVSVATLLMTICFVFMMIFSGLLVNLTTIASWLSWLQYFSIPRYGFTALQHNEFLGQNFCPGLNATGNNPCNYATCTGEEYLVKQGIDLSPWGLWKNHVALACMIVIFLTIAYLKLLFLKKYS
The test can be described thus: FACS cell binding.

Test [2] deals with T1, human ABCG2. The test can be described thus: FACS cell binding (MFI).
The target of test [3] is T2, cynomolgus ABCG2 (Macaca fascicularis) (UniProt Q5MB13 1-654).
T2 chain: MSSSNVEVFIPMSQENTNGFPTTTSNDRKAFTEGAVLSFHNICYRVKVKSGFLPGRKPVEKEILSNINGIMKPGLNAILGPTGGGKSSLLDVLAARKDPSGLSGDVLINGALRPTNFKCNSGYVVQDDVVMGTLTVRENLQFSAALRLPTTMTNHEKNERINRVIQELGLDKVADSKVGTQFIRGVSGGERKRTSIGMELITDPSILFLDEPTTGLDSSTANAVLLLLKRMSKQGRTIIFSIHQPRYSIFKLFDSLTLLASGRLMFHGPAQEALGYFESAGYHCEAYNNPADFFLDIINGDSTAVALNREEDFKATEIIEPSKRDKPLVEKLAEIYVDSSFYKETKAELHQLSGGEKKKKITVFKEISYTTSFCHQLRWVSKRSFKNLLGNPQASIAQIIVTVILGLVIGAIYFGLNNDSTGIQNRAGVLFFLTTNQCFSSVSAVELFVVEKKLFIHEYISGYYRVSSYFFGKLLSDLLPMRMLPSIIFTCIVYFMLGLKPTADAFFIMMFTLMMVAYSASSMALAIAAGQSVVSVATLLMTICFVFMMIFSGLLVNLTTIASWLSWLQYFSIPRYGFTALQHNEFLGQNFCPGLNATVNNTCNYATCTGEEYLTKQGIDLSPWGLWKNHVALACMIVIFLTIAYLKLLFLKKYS
Kind of test: cell binding.

Test [4] has as its target T1, human ABCG2. Kind of test: cell binding.
The target in test [5] is T2, cynomolgus ABCG2 (Macaca fascicularis). Kind of test: FACS binding to 293T cells. (A flow cytometer gives signals particle by particle.)
In test [6] the target is T1, human ABCG2. The test can be described thus: FACS binding to 293T cells.
For test [7], the target named is T2, cynomolgus ABCG2 (Macaca fascicularis). Kind of test: FACS binding to 293T cells.
The target of test [8] is T1, human ABCG2. Kind of test: FACS binding to 293T cells.
In test [9] the target is T1, human ABCG2. Kind of test: FACS binding to 293T.hG2 cells.
The target of test [10] is T2, cynomolgus ABCG2 (Macaca fascicularis). The test can be described thus: FACS binding to 293T.cG2 cells.
The target is the same in test [11]. Kind of test: FACS binding to 293T cells.
Test [12] concerns the target T1, human ABCG2. The test can be described thus: FACS binding to 293T cells.
Test [13] addresses T2, cynomolgus ABCG2 (Macaca fascicularis). Kind of test: FACS binding to 293T cells.
For test [14], the target named is T1, human ABCG2. Kind of test: FACS binding to 293T cells.

B1: G2.173 Humanized 3 (antibody, V domains shown)
VH: EVQLVQSGAEVKKPGASVKVSCKASGFNIKDDYVHWVRQAPGQGLEWIGRIDPASGNTRYAPKFRGRATMTADTSISTAYMELSRLRSDDTAVYYCSPPLWVGGFAYWGQGTLVTVSS
VL: DVVMTQSPLSLPVTLGQPASISCRSSQSLVHSDVNTYLHWYQQRPGQSPRLLIYKVSNRFSGVPDRFSGSGSGTDFTLKISRVEAEDVGVYFCSQTTHVPYTFGGGTKLEIK
In the case of B1, the Kd (commonly the constant that tells how readily two partners part at equilibrium) with human ABCG2 [1] is 0.0335 µM.

B2: G2.173 mouse (antibody, V domains shown)
VH: QVQLQQSGADLVRPGASVKLSCTASGFNIKDDYVHWVKQRPEQGLEWIGRIDPANGNTRYAPKFRGKATMTADTSSNTAYLQLSSLTSADTAVYYCSPPLWVGGFAYWGQGTLVTVSS
VL: B1 VL with S7T, T14S, Q17D, P18Q, Q42L, R50K, A85S, V88L, V90I
For B2, the EC50 (as a rule, the concentration at which the effect is half-maximal) with human ABCG2 [2] amounted to 0.0171 µM.

B3: G2.302 mouse (antibody, V domains shown)
VH: QIQLQQSGPELVRPGASVKISCKASGYTFTDYYINWVKQRPGQGLEWIGWIYPGNVNVKYNEKFKGKATLTVDTSSSTGYMQLRSLTSEDSAVYFCARSIGLRYFDNWGQGTTLTVSS
VL: EKVLTQSPAIMSASLGEKVTMSCRASSSVHYMYWHQQKSDASPRLWIYYTSNLAPGVPARFSGSGSGNFYSLTISSVEDEDGATYYCQQFTTSTWTFGGGTKLEIK
Molecule B3 gave a dissociation constant (Kd) with human ABCG2 [1] of 0.0336 µM. The molecule also showed an EC50 with human ABCG2 [2] of 0.0185 µM.

B4: anti-ABCG2 antibody 5D3 (antibody, V domains shown)
VH: QVQLQESGPGLVKPSQSLSLTCTVTGFSITSDYAWNWIRQFPGKKLEWMGYINFDGGTTYNPSLRGRISITRDTSKNQFFLQLRSVTPEDTATYYCATFYGAKGTLDYWGQGTSVTVSS
VL: DIVLTQSPSSFSVSLGDRVTISCKASGYILNRLAWYQQKPGNAPRLLISGATSLETGFPSRFSGTGSGKDYTLSISSLQTEDVGTYYCQQYWSTPWTFGGGTKLEIK
With B4, the EC50 was determined as 0.131 µM in test [3], 0.0049 µM with human ABCG2 [4] and 0.0085 µM with human ABCG2 [2]. The Kd in test [5] worked out at 0.253 µM; with human ABCG2 [6], 0.0157 µM; in test [7] it was 0.0992 µM; with human ABCG2 [8], 0.0377 µM; with human ABCG2 [9], 0.0377 µM; in test [10] it was 0.0992 µM.

B5: G2.636 rat (antibody, V domains shown)
VH: EVKLVESGGGLVQPGRSLKLSCAASGFTFSRFYMAWVRQAPTKGLEWVAHISHGGDTTYYRDSVKGRFTISRDNAKSTLFLQMDSLRSEDTATYYCTTSAAPWNYVMDGWGLGASVTVSS
VL: DIVMTQSPSLLSASVGDRVTLTCKGSQNINNFLAWYQQKLGEAPKLLIYKTNSLHTGIPSRFSGSGSGTDYTLTISSLHSEDLATYYCYQYNNGYTFGAGTKLELK
Turning to B5, the results for the half-maximal effective concentration (EC50) (in test [3]; in the test with human ABCG2 [4]) were 0.341 µM and 0.08 µM, respectively. Also, the Kd in [11] worked out at 0.0625 µM; in the test with human ABCG2 [12], 0.0109 µM.

B6: G2.748 rat (antibody, V domains shown)
VH: QVSLKESGPGMLQPSKTLSLTCSFSGFSLSTSGMVVNWIRQPSGKSLEWLAAIDWDGDKYYNPSLKHRLTVSKDTSNTQVVLKITSVDTADTATYYCARSIAPYRGWFGYWGQGTLVTVSS
VL: EIVLIQSPSSLPASLGERVTIICRASQDIGNNLNWYQQKPDGTIKPLIYFTSNFQSGVPSSFSGSRSGTDFSLTISSLEAEDFAMYYCQQDASLPWTFGGGTKLEIK
Take B6: the Kd (in test [7]; with human ABCG2 [8]; with human ABCG2 [9]; in test [10]) was 0.0005 µM each time.

B7: G2_732 (antibody, V domains shown)
VH: VQLKESGPGLVQPSQTLSLTCTVSGLSLTSTGVSWIRQPPGKGLEWMGVIWSNGGTDYNSAIKSRLSISRDTSKSQVFLKMNSLQTEDTAMYFCARAIAPSYIMDAWGQGASVTVSS
VL: DIQMTQSPPSLSASLGDKVTITCQASQNIHKYIAWYRQKPGKPPRLLIRYTSTLQSGTPSRFSGSGSGRDYSFSISNVESEDIASYYCLQYVNLWTFGGGTKLELK
For the molecule B7, the Kd in test [13] worked out at 0.0148 µM; with human ABCG2 [14] it was 0.0062 µM.

B8: G2_746 (antibody, V domains shown)
VH: VKLEESGPGLVLPSQTLSLSCTVSGLSLISNSISWIRQPPGKGLEWMGVMWNNGGTDYNSAIKSRLSISRDTSKSQVFLKMNSLQTEDTAMYFCARGYSSYIFDYWGQGASVTVSS
VL: B7 VL with Q3L, K31G, R37Q, K42R, P43L, Y50L, Q55E, I83L
For B8, the dissociation constant (Kd) in [11] was 0.0664 µM; with human ABCG2 [12], 0.0223 µM.

B9: G2_392 (antibody, V domains shown)
VH: B7 VH with K4V, G9D, K42R, K63R, P100A
VL: B7 VL with Q38H
Consider B9, for which the Kd was 0.0934 µM in [13] and 0.0353 µM in the test with human ABCG2 [14].

B10: G2_360 (antibody, V domains shown)
VH: QVQLRESGPGLVQPSQTLSLTCTVSGLSLTSNSISWIRQPPGKGLEWMGVIWSTGGTDYNSAIKSRLSISRDTSKSQVFLKMNSLQTEDTAMYFCARAIAASAVMDAWGQGASVTVSS
VL: B7 VL with A34G, R37Q, P43A, Q55E, D70Y
B10: the Kd in test [13] was found to be 0.156 µM; in the test with human ABCG2 [14], 0.0237 µM.

B11: G2.65 mouse (antibody, V domains shown)
VH: QGQMHQSGAELVKPGASVKLSCKTSGFTFNSGYISWLKQKPRQSLEWIAWIYAGTGISNFNQKFTGKAQLTVDTSSSTAYMQLSSLTSADSAIYFCASGARKTLDFWGQGTSVTVSS
VL: DIQMTQSSSYLSVSVGGRVTITCKASDQINYWLAWYQQKPGNAPRLLISGATSLETGVPSRFSGSGSGKDYTLSITSFQTEDVATYYCQQYWTTPYTFGGGTKVEIK
As to B11, the EC50 with human ABCG2 [2] turned out to be 0.18 µM.
